Assay results reported in the supplement of paper PMC9112550, “Optimization of the antimicrobial peptide Bac7 by deep mutational scanning” (BMC Biology, 2022).

Tested on: Escherichia coli TOP10
Experiment: shrunken log2 fold change of peptide-encoding DNA abundance (4.5 h post-induction vs induction); higher = less antimicrobial activity (less host growth inhibition)
Settings: time post-induction: 4.5 h; library: site-saturation at positions 5, 18, 19, 20
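Also: peptides expressed intracellularly from a pBAD plasmid library in pooled LB shake-flask culture, induced with 0.3% L-arabinose, DNA abundance read by NGS, three biological replicates, DESeq2 with apeglm shrinkage.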

Row | Sequence | shrunken log2 fold change
1 | RRIRQRPPRLPRPRPRPTNTPRP | -0.216
2 | RRIRSRPPRLPRPRPRPGTNPRP | -0.188
3 | RRIRTRPPRLPRPRPRPCLFPRP | -0.16
4 | RRIRCRPPRLPRPRPRPPMAPRP | 0.263
5 | RRIRSRPPRLPRPRPRPEQQPRP | 0.0303
6 | RRIRARPPRLPRPRPRPGSIPRP | -0.283
7 | RRIRMRPPRLPRPRPRPVYCPRP | 0.00982
8 | RRIRVRPPRLPRPRPRPDCYPRP | -0.15
9 | RRIRCRPPRLPRPRPRPADLPRP | -0.24
10 | RRIRCRPPRLPRPRPRPPCRPRP | 0.609
11 | RRIRPRPPRLPRPRPRPMRVPRP | 0.998
12 | RRIRPRPPRLPRPRPRPAQMPRP | 0.181
13 | RRIRLRPPRLPRPRPRPGLYPRP | -0.476
14 | RRIRERPPRLPRPRPRPCLYPRP | -0.489
15 | RRIRNRPPRLPRPRPRPNINPRP | -0.638
16 | RRIRVRPPRLPRPRPRPLVRPRP | 0.0251
17 | RRIRCRPPRLPRPRPRPWDQPRP | 0.0182
18 | RRIRYRPPRLPRPRPRPGTEPRP | -0.521
19 | RRIRLRPPRLPRPRPRPIATPRP | 0.173
20 | RRIRGRPPRLPRPRPRPCIKPRP | 0.268
21 | RRIRHRPPRLPRPRPRPICGPRP | 0.00743
22 | RRIRERPPRLPRPRPRPKILPRP | -0.0994
23 | RRIRCRPPRLPRPRPRPKHGPRP | -0.116
24 | RRIRARPPRLPRPRPRPFDYPRP | -0.245
25 | RRIRIRPPRLPRPRPRPHWIPRP | -0.157

Row | Sequence | shrunken log2 fold change
26 | RRIRMRPPRLPRPRPRPKCQPRP | 1.33
27 | RRIRMRPPRLPRPRPRPQSYPRP | 0.00618
28 | RRIRVRPPRLPRPRPRPNMYPRP | 0.0145
29 | RRIRSRPPRLPRPRPRPRWEPRP | 0.275
30 | RRIRFRPPRLPRPRPRPMINPRP | -0.208
31 | RRIRVRPPRLPRPRPRPWMYPRP | -0.225
32 | RRIRLRPPRLPRPRPRPYCQPRP | -0.797
33 | RRIRYRPPRLPRPRPRPLFYPRP | -0.335
34 | RRIRYRPPRLPRPRPRPKKDPRP | -0.719
35 | RRIRPRPPRLPRPRPRPAMAPRP | 0.388
36 | RRIRVRPPRLPRPRPRPKCEPRP | 0.0936
37 | RRIRIRPPRLPRPRPRPINCPRP | -0.0883
38 | RRIRRRPPRLPRPRPRPEMMPRP | 0.345
39 | RRIRSRPPRLPRPRPRPSSNPRP | -0.872
40 | RRIRSRPPRLPRPRPRPAFAPRP | 0.414
41 | RRIRNRPPRLPRPRPRPMTGPRP | -0.149
42 | RRIRSRPPRLPRPRPRPGDIPRP | -0.198
43 | RRIRKRPPRLPRPRPRPRVQPRP | 0.386
44 | RRIRQRPPRLPRPRPRPHVRPRP | -0.00149
45 | RRIRLRPPRLPRPRPRPVVSPRP | -0.054
46 | RRIRYRPPRLPRPRPRPMSFPRP | -0.00962
47 | RRIRCRPPRLPRPRPRPNVVPRP | 0.0385
48 | RRIRKRPPRLPRPRPRPGFAPRP | 0.718
49 | RRIRYRPPRLPRPRPRPNLIPRP | -0.438
50 | RRIRTRPPRLPRPRPRPDNGPRP | -0.225

Row | Sequence | shrunken log2 fold change
51 | RRIRMRPPRLPRPRPRPMQAPRP | 3.02
52 | RRIRDRPPRLPRPRPRPFMPPRP | -0.124
53 | RRIRGRPPRLPRPRPRPRYVPRP | -0.0805
54 | RRIRIRPPRLPRPRPRPNSYPRP | -0.084
55 | RRIRLRPPRLPRPRPRPEAHPRP | -0.187
56 | RRIRKRPPRLPRPRPRPSYAPRP | 0.0314
57 | RRIRQRPPRLPRPRPRPYHAPRP | -0.052
58 | RRIRFRPPRLPRPRPRPHYQPRP | -0.0104
59 | RRIRFRPPRLPRPRPRPEMNPRP | -0.253
60 | RRIRLRPPRLPRPRPRPKWMPRP | -0.00339
61 | RRIRWRPPRLPRPRPRPDMFPRP | -0.0661
62 | RRIRGRPPRLPRPRPRPVSWPRP | 1.06
63 | RRIRKRPPRLPRPRPRPRKRPRP | 1.04
64 | RRIRNRPPRLPRPRPRPIVMPRP | -0.0105
65 | RRIRHRPPRLPRPRPRPERIPRP | -0.0507
66 | RRIRRRPPRLPRPRPRPEQPPRP | 0.389
67 | RRIRGRPPRLPRPRPRPSGCPRP | 0.477
68 | RRIRGRPPRLPRPRPRPNCWPRP | 0.303
69 | RRIRLRPPRLPRPRPRPDVCPRP | 0.0271
70 | RRIRHRPPRLPRPRPRPQDDPRP | 0.0649
71 | RRIRARPPRLPRPRPRPVHLPRP | 0.215
72 | RRIRFRPPRLPRPRPRPEIHPRP | -0.227
73 | RRIRYRPPRLPRPRPRPMCWPRP | -0.213
74 | RRIRTRPPRLPRPRPRPFLTPRP | 0.153
75 | RRIRYRPPRLPRPRPRPKQYPRP | -0.409

Row | Sequence | shrunken log2 fold change
76 | RRIRPRPPRLPRPRPRPLRYPRP | 0.17
77 | RRIRQRPPRLPRPRPRPHQIPRP | 0.0211
78 | RRIRLRPPRLPRPRPRPQIEPRP | -0.155
79 | RRIRYRPPRLPRPRPRPIGVPRP | -0.0936
80 | RRIRYRPPRLPRPRPRPNNNPRP | -0.989
81 | RRIRPRPPRLPRPRPRPQRHPRP | -0.14
82 | RRIRWRPPRLPRPRPRPACDPRP | 0.788
83 | RRIRIRPPRLPRPRPRPYMEPRP | -0.677
84 | RRIRHRPPRLPRPRPRPPDNPRP | -0.0231
85 | RRIRVRPPRLPRPRPRPHWYPRP | -0.463
86 | RRIRKRPPRLPRPRPRPCQNPRP | 0.412
87 | RRIRWRPPRLPRPRPRPKDSPRP | 0.118
88 | RRIRFRPPRLPRPRPRPFRYPRP | -0.151
89 | RRIRNRPPRLPRPRPRPCRMPRP | -0.195
90 | RRIRPRPPRLPRPRPRPPENPRP | 0.365
91 | RRIRLRPPRLPRPRPRPWAVPRP | 0.0558
92 | RRIRGRPPRLPRPRPRPYPNPRP | -0.529
93 | RRIRMRPPRLPRPRPRPGLRPRP | 1.15
94 | RRIRIRPPRLPRPRPRPETSPRP | -0.239
95 | RRIRQRPPRLPRPRPRPRQQPRP | -0.0145
96 | RRIRVRPPRLPRPRPRPNFDPRP | -0.0598
97 | RRIRMRPPRLPRPRPRPRNGPRP | 0.833
98 | RRIRRRPPRLPRPRPRPSCHPRP | -0.0344
99 | RRIRERPPRLPRPRPRPYRGPRP | -0.00417
100 | RRIRWRPPRLPRPRPRPITNPRP | -0.0654

Row | Sequence | shrunken log2 fold change
101 | RRIRLRPPRLPRPRPRPTFAPRP | 0.394
102 | RRIRGRPPRLPRPRPRPYDEPRP | 0.0538
103 | RRIRKRPPRLPRPRPRPMRVPRP | 0.848
104 | RRIRLRPPRLPRPRPRPGQFPRP | 0.16
105 | RRIRKRPPRLPRPRPRPQVFPRP | 0.00956
106 | RRIRARPPRLPRPRPRPEYQPRP | 0.118
107 | RRIRKRPPRLPRPRPRPQGFPRP | -0.00783
108 | RRIRYRPPRLPRPRPRPVERPRP | 0.00806
109 | RRIRQRPPRLPRPRPRPQCGPRP | -0.133
110 | RRIRIRPPRLPRPRPRPQQCPRP | -0.211
111 | RRIRARPPRLPRPRPRPQRSPRP | 0.17
112 | RRIRERPPRLPRPRPRPVVPPRP | -0.158
113 | RRIRDRPPRLPRPRPRPFGGPRP | -0.0275
114 | RRIRMRPPRLPRPRPRPHQVPRP | 0.423
115 | RRIRLRPPRLPRPRPRPDWQPRP | -0.0564
116 | RRIRNRPPRLPRPRPRPEWPPRP | 0.178
117 | RRIRARPPRLPRPRPRPKNFPRP | 0.251
118 | RRIRERPPRLPRPRPRPSMLPRP | -0.938
119 | RRIRDRPPRLPRPRPRPNQNPRP | 0.0279
120 | RRIRCRPPRLPRPRPRPDTEPRP | -0.0455
121 | RRIRQRPPRLPRPRPRPRDRPRP | 0.399
122 | RRIRSRPPRLPRPRPRPRYIPRP | -0.707
123 | RRIRIRPPRLPRPRPRPFVFPRP | -0.356
124 | RRIRARPPRLPRPRPRPALWPRP | 0.833
125 | RRIRVRPPRLPRPRPRPCEQPRP | 0.211

Row | Sequence | shrunken log2 fold change
126 | RRIRNRPPRLPRPRPRPKEEPRP | 0.0169
127 | RRIRMRPPRLPRPRPRPYPEPRP | -0.121
128 | RRIRPRPPRLPRPRPRPYEVPRP | -0.125
129 | RRIRLRPPRLPRPRPRPRPCPRP | 0.421
130 | RRIRKRPPRLPRPRPRPKVHPRP | 0.243
131 | RRIRERPPRLPRPRPRPKQQPRP | -0.0499
132 | RRIRVRPPRLPRPRPRPASEPRP | 0.0395
133 | RRIRGRPPRLPRPRPRPHQAPRP | 0.354
134 | RRIRYRPPRLPRPRPRPGGDPRP | 0.137
135 | RRIRERPPRLPRPRPRPMYIPRP | -0.289
136 | RRIRIRPPRLPRPRPRPNVWPRP | -0.309
137 | RRIRSRPPRLPRPRPRPRHKPRP | -0.262
138 | RRIRKRPPRLPRPRPRPVHMPRP | -0.0183
139 | RRIRCRPPRLPRPRPRPKPNPRP | 0.572
140 | RRIRVRPPRLPRPRPRPGFCPRP | 0.352
141 | RRIRQRPPRLPRPRPRPQGVPRP | 0.0036
142 | RRIRPRPPRLPRPRPRPSMCPRP | -0.0117
143 | RRIRSRPPRLPRPRPRPHTEPRP | -0.599
144 | RRIRPRPPRLPRPRPRPRYIPRP | -0.602
145 | RRIRHRPPRLPRPRPRPCGYPRP | -0.0081
146 | RRIRQRPPRLPRPRPRPAFGPRP | 0.171
147 | RRIRCRPPRLPRPRPRPIWCPRP | 2.08e-06
148 | RRIRKRPPRLPRPRPRPNNIPRP | -0.477
149 | RRIRIRPPRLPRPRPRPKSEPRP | -0.329
150 | RRIRFRPPRLPRPRPRPNQNPRP | -0.443
